Test results taken from patent US20060147995A1 (UNILEVER PATENT HOLDINGS B V, published 2006).

Target: T1, bovine serum albumin (bovine, UniProt P02769 25-607)
T1 construct: Unconjugated carrier protein used as a control antigen; also called BSA
Assay: ELISA of soluble HC-V-myc supernatant on immobilised antigens, anti-myc detection
Procedure: Commercially available strains such as TOPIOF (stratagene) and HB2151 (Pharmacia) may alternatively be used. Two transformants of each clone were pre-grown in 10 ml 2TY/Ampicillin/Glucose. After 3-4 hours of growth at 37° C. (OD₆₀₀=0.5), the cells were pelleted by centrifugation and resuspended in 5 ml 2TY/Ampicillin/IPTG (0.1 mM). After 24 hours of incubation at 25° C. the cultures were centrifuged, and the supernatants were analysed for the production of antigen binding activity in essential the same way as described in Example 3. In this case, however, the presence of specifically bound HC-V fragments was detected by incubation with monoclonal anti-myc antibodies, followed by incubation with poly-clonal rabbit-anti-mouse conjugate with alkaline phosphatase.
Another three clones (nR3, nR4 and nR8) were specific for RR6-BSA, but the signals observed were very low. […] This was confirmed by analysis of the supernatants on Western blots (FIG. 3B). The remaining 3 clones (nR6, nR9 and nR10) gave significant signals over background on RR6-BSA, BSA and E3G-OVA (FIG. 3A). It would appear that these three ‘sticky’ clones bind to immobilised proteins in general.

T1 sequence (P02769 25-607 limits assumed): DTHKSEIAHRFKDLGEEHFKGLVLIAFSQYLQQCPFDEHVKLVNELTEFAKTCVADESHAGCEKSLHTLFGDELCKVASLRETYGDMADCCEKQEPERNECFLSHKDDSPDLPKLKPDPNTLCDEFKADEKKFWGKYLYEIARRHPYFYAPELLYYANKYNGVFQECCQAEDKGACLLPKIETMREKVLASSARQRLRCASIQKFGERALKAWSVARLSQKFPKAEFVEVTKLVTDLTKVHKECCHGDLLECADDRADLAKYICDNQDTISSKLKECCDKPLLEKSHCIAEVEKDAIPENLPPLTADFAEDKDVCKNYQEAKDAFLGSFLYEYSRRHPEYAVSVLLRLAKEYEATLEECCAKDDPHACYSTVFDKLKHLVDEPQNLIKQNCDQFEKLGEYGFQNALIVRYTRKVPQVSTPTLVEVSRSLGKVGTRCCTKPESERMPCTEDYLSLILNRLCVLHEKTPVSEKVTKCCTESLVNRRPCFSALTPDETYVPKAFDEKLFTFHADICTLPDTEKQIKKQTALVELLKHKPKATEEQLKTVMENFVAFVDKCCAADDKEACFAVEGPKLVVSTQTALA

- binding result: no binding
B1: nR11 (VHH)
VHH: QVQLQESGGGLVQPGDFVRLSCAASRRASSTYAVGWFRQAPGKEREFVGRIHRGGGSTYYADSVKGRFTISRDNTQNTVYLQMNSLKPEDTAVYYCNVRSYWGQGTQVTVSS
notes: Llama HC-V tested as soluble HC-V-myc in crude culture supernatant; also called anti-RR6 HC-V fragment nR11; HC-V-myc
